The chains are these.
B1: Transcription factor SOX-4, residues 60 to 127; numbered along this chain, Q06945 (parent)
chain: KRPMNAFMVWSQIERRKIMEQSPDMHNAEISKRLGKRWKLLKDSDKIPFIREAERLRLKHMADYPDYK

± gives the uncertainty stated by the source.

Variants of B1 are the subject of this data set. Description: abundance fitness (aPCA) (normalised: wild type 0, dead -1); higher = more abundant; growth selection in yeast, the domain comes from the species named. The note with it: Homo sapiens.
As to E54G, the abundance fitness is -0.514 ± 0.044.

E54F: the abundance fitness was -0.574 ± 0.056.

As for E54L, the abundance fitness was -0.501 ± 0.045.

E54I: the abundance fitness is -0.701 ± 0.067.

For E54P, the abundance fitness is -0.802 ± 0.11.

Take P48T: the abundance fitness was -0.346 ± 0.071.

Turning to P48Y, the abundance fitness was -0.566 ± 0.1.

With P48I, the abundance fitness was -0.089 ± 0.08.

With P48D, the abundance fitness was -0.469 ± 0.077.

P48F: the abundance fitness was -0.351 ± 0.076.

With P48E, the abundance fitness was -0.189 ± 0.049.

With M8E, the abundance fitness amounted to 0.232 ± 0.073.

For the variant M8K, the abundance fitness is -0.205 ± 0.054.

Regarding M8C, the abundance fitness was -0.278 ± 0.061.

As for M8H, the abundance fitness was 0.042 ± 0.062.

Consider M8G, for which the abundance fitness worked out at 0.025 ± 0.041.

Turning to M8D, the abundance fitness stood at 0.088 ± 0.049.

With R57M, the abundance fitness was -0.135 ± 0.086.

Turning to R57P, the abundance fitness is -0.236 ± 0.093.

Take R57G: the abundance fitness is -0.247 ± 0.064.

Consider R57V, for which the abundance fitness is -0.413 ± 0.072.

With R57Q, the abundance fitness is -0.206 ± 0.1.

For the variant R57W, the abundance fitness was -0.32 ± 0.11.

Regarding M19F, the abundance fitness was -0.257 ± 0.054.

With M19K, the abundance fitness was 0.007 ± 0.048.

As to M19T, the abundance fitness is -0.338 ± 0.098.

With M19E, the abundance fitness is -0.019 ± 0.067.

Turning to M19S, the abundance fitness was -0.212 ± 0.039.

For the variant M19W, the abundance fitness is -0.326 ± 0.068.

Regarding M19C, the abundance fitness is -0.175 ± 0.045.

Consider D45S, for which the abundance fitness is -0.431 ± 0.089.

Take D45K: the abundance fitness was -0.486 ± 0.33.

Regarding D45A, the abundance fitness is -0.239 ± 0.071.

Take D45E: the abundance fitness was -0.074 ± 0.089.

On to D45W, for which the abundance fitness is -0.344 ± 0.12.

For L56D, the abundance fitness was -0.385 ± 0.13.

Regarding L56V, the abundance fitness is -0.286 ± 0.063.

Turning to L56A, the abundance fitness is -0.355 ± 0.073.

Take L56T: the abundance fitness is -0.272 ± 0.09.

As for L56W, the abundance fitness is -0.542 ± 0.088.

In the case of L56Q, the abundance fitness was -0.108 ± 0.08.

As to L56K, the abundance fitness was -0.174 ± 0.15.

I50W: the abundance fitness was -0.633 ± 0.15.

With I50N, the abundance fitness was -0.284 ± 0.19.

For the variant I50T, the abundance fitness is -0.337 ± 0.086.

With I50E, the abundance fitness was 0.009 ± 0.081.

For the variant I50K, the abundance fitness is -0.362 ± 0.14.

Turning to I50G, the abundance fitness is -0.309 ± 0.07.

In the case of I50L, the abundance fitness is -0.194 ± 0.082.

For I50Y, the abundance fitness turned out to be 0.041 ± 0.28.

Regarding K17H, the abundance fitness is -0.426 ± 0.14.

As to K17Y, the abundance fitness was -0.421 ± 0.095.

K68E: the abundance fitness was -0.155 ± 0.11.

Consider W38N, for which the abundance fitness is -0.874 ± 0.094.

For W38H, the abundance fitness was -0.548 ± 0.14.

In the case of W38P, the abundance fitness was -0.739 ± 0.13.

Consider M61V, for which the abundance fitness was -0.073 ± 0.072.

As for M61H, the abundance fitness stood at 0.098 ± 0.061.

Regarding M61I, the abundance fitness was -0.238 ± 0.072.

Regarding R15I, the abundance fitness is -0.25 ± 0.057.

For the variant R15H, the abundance fitness is -0.428 ± 0.14.

Consider R15P, for which the abundance fitness is -0.686 ± 0.14.

For R15L, the abundance fitness was -0.512 ± 0.056.

With V9R, the abundance fitness was -1 ± 0.14.

As to V9E, the abundance fitness is -0.856 ± 0.19.

As for V9M, the abundance fitness was -0.266 ± 0.13.

As for V9K, the abundance fitness was -0.978 ± 0.29.

As for V9W, the abundance fitness was -0.694 ± 0.13.

V9S: the abundance fitness was -0.803 ± 0.15.

Turning to L34E, the abundance fitness is -0.639 ± 0.27.

As for L34W, the abundance fitness is -0.713 ± 0.11.

L34H: the abundance fitness is -0.881 ± 0.12.

In the case of L34F, the abundance fitness was -0.724 ± 0.18.

As for L34M, the abundance fitness is -0.798 ± 0.18.

With L34C, the abundance fitness was -0.825 ± 0.18.

With L34R, the abundance fitness was -0.981 ± 0.14.

For the variant A53P, the abundance fitness was -1.19 ± 0.3.

As for A53N, the abundance fitness was -0.275 ± 0.24.

As for A53H, the abundance fitness was -0.42 ± 0.17.

For A53C, the abundance fitness was -0.824 ± 0.27.

For H26K, the abundance fitness is 0.138 ± 0.15.

As for H26W, the abundance fitness is -0.281 ± 0.079.

In the case of H26P, the abundance fitness came to 0.134 ± 0.092.

Take H26M: the abundance fitness was -0.182 ± 0.093.

Turning to H26T, the abundance fitness was 0.154 ± 0.058.

Consider H26Q, for which the abundance fitness stood at 0.111 ± 0.1.

As to R55W, the abundance fitness was -0.44 ± 0.047.

Consider R55T, for which the abundance fitness was -0.181 ± 0.067.

As to R55N, the abundance fitness is -0.22 ± 0.07.

Take R55S: the abundance fitness was -0.309 ± 0.045.

As for Y67I, the abundance fitness was 0.11 ± 0.15.

In the case of Y67T, the abundance fitness is -0.14 ± 0.08.

Consider Y67H, for which the abundance fitness is -0.301 ± 0.38.

Y67P: the abundance fitness was -0.057 ± 0.088.

For Y67M, the abundance fitness was -0.069 ± 0.093.

Consider Y67W, for which the abundance fitness is -0.296 ± 0.11.

As for I30H, the abundance fitness was -1.11 ± 0.17.

Consider I30F, for which the abundance fitness is -0.912 ± 0.11.

Regarding I30M, the abundance fitness was -0.254 ± 0.063.

Regarding I30P, the abundance fitness is -0.976 ± 0.18.

With P23S, the abundance fitness is -0.47 ± 0.047.

Take P23Q: the abundance fitness is -0.482 ± 0.09.

For the variant P23L, the abundance fitness is -0.52 ± 0.055.

Take P23N: the abundance fitness was -0.554 ± 0.057.

As to P23F, the abundance fitness is -0.97 ± 0.12.

As for K42M, the abundance fitness is -0.465 ± 0.1.

As to K42H, the abundance fitness was -0.487 ± 0.28.

On to K42V, for which the abundance fitness is -0.372 ± 0.074.

Regarding K42W, the abundance fitness was -0.786 ± 0.13.

In the case of K42S, the abundance fitness was 0.13 ± 0.053.

With K42Q, the abundance fitness was -0.104 ± 0.063.

Regarding K42I, the abundance fitness was -0.609 ± 0.17.

Turning to K42G, the abundance fitness is -0.264 ± 0.075.

On to K59W, for which the abundance fitness was -0.369 ± 0.056.

Take K59Y: the abundance fitness was -0.277 ± 0.053.

K59R: the abundance fitness is -0.126 ± 0.035.

With K59T, the abundance fitness is -0.162 ± 0.058.

Take K39L: the abundance fitness was -0.244 ± 0.048.

As for K39H, the abundance fitness is -0.506 ± 0.11.

For K39S, the abundance fitness was -0.027 ± 0.036.

Turning to K39P, the abundance fitness is -0.783 ± 0.2.

For K39G, the abundance fitness is -0.098 ± 0.04.

Consider K39R, for which the abundance fitness is -0.187 ± 0.047.

Turning to K39T, the abundance fitness is -0.216 ± 0.064.

As to D43A, the abundance fitness was -0.061 ± 0.055.

Turning to D43S, the abundance fitness is -0.237 ± 0.037.

Turning to D43P, the abundance fitness was -0.137 ± 0.067.

Regarding D43W, the abundance fitness is -0.106 ± 0.043.

In the case of D43M, the abundance fitness is -0.062 ± 0.056.

On to A6I, for which the abundance fitness was -0.794 ± 0.083.

A6G: the abundance fitness was -0.079 ± 0.04.

Consider A6H, for which the abundance fitness was -1.12 ± 0.36.

Regarding A6E, the abundance fitness is -0.656 ± 0.074.

On to A6Q, for which the abundance fitness is -0.617 ± 0.094.

Turning to A6W, the abundance fitness was -0.896 ± 0.1.

In the case of E52V, the abundance fitness is -0.556 ± 0.065.

With E52D, the abundance fitness was -0.223 ± 0.13.

With E52Q, the abundance fitness is -0.291 ± 0.088.

Take E52L: the abundance fitness is -0.3 ± 0.062.

Consider E52Y, for which the abundance fitness is -0.634 ± 0.23.

Take E52P: the abundance fitness was -1.14 ± 0.29.

Take Y64K: the abundance fitness was 0.128 ± 0.095.

Turning to Y64C, the abundance fitness was -0.056 ± 0.2.

For the variant Y64P, the abundance fitness is -0.009 ± 0.061.

For the variant Y64N, the abundance fitness came to 0.124 ± 0.12.

In the case of K1G, the abundance fitness is -0.054 ± 0.068.

Take K1A: the abundance fitness is -0.193 ± 0.098.

In the case of K1P, the abundance fitness was -0.549 ± 0.3.

As to K1T, the abundance fitness was -0.379 ± 0.082.

On to F49I, for which the abundance fitness is -0.82 ± 0.26.

As for F49H, the abundance fitness was -0.131 ± 0.31.

As to F49M, the abundance fitness is -1.08 ± 0.31.

As to F49P, the abundance fitness was -1.08 ± 0.23.

Turning to F49S, the abundance fitness is -0.763 ± 0.098.

On to M25V, for which the abundance fitness is -0.125 ± 0.065.

M25F: the abundance fitness was -0.614 ± 0.29.

For M25R, the abundance fitness was -0.591 ± 0.068.

Regarding R2G, the abundance fitness is -0.121 ± 0.086.

With R2D, the abundance fitness was -0.053 ± 0.13.

Take R2H: the abundance fitness was -0.305 ± 0.19.

With R2N, the abundance fitness is -0.154 ± 0.16.

In the case of R2F, the abundance fitness was -0.113 ± 0.12.

For the variant R2Y, the abundance fitness was -0.374 ± 0.41.

In the case of R2Q, the abundance fitness was -0.039 ± 0.088.

Consider R16V, for which the abundance fitness was -0.111 ± 0.038.

In the case of R16M, the abundance fitness is -0.212 ± 0.075.

For the variant R16P, the abundance fitness was -0.234 ± 0.066.

These data come from the Human Domainome abundance scans (Beltran et al. 2025).
